Source: the supplement of paper PMC10567573

B1: LOC100129726 (parent)
chain: VHTGCHKKLGPEARRPRTRWGKN
B2: WEE1 (parent)
chain: FISRTSIPNAASEEGDEDDWASNK

Variants of: B1
Assay: protein stability index of a GFP-peptide fusion (GPS, HEK-293T) (PSI 1-6); higher = more stable
Conditions: c terminus: native
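Note: lentivirally expressed fusions sorted by FACS into six bins by GFP to DsRed ratio, PSI derived from sequencing read proportions per bin multiplied by bin number.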

Row | Variant | protein stability index
1 | N23Q | 1.63
2 | N23W | 2.27
3 | N23C | 1.61
4 | N23I | 1.3
5 | N23S | 1.74
6 | N23T | 2.35
7 | N23D | 2.78
8 | N23F | 2.03
9 | N23P | 2.62
10 | N23L | 1.42
11 | A13W | 2.94
12 | A13R | 1.64
13 | A13S | 2.71
14 | A13E | 2.55
15 | A13N | 1.94
16 | A13K | 1.11
17 | A13F | 2.49
18 | R15F | 3.27
19 | R15N | 2.42
20 | R15V | 1.34
21 | R15E | 2.63
22 | R15G | 3.43
23 | R15Y | 2.06

Row | Variant | protein stability index
24 | R15C | 1.41
25 | R15I | 1.27
26 | R15P | 2.75
27 | R15Q | 1.75
28 | R15H | 2.44
29 | R15L | 1.7
30 | P11D | 2.18
31 | P11R | 1.01
32 | P11S | 1.53
33 | P11A | 2.24
34 | P11Y | 2.17
35 | P11V | 2.25
36 | P11W | 1.46
37 | P11K | 2.05
38 | P11M | 2.37
39 | P11T | 2.67
40 | P11F | 2.47
41 | C5R | 2.29
42 | C5N | 1.59
43 | C5V | 2.93
44 | C5Y | 1.98
45 | C5L | 2.41
46 | C5W | 1.2

Row | Variant | protein stability index
47 | C5K | 2.27
48 | C5T | 2.35
49 | C5S | 1.51
50 | C5I | 1.63
51 | C5P | 2.09
52 | C5M | 2.41
53 | C5Q | 1.54
54 | K7V | 1.08
55 | K7E | 1.87
56 | K7H | 2.33
57 | K7M | 4.17
58 | R17G | 2.75
59 | R17Q | 1.01
60 | R17F | 2.48
61 | R17I | 1.98
62 | R17Y | 2.15
63 | R17P | 4.37
64 | R17A | 2.5
65 | R17L | 1.7
66 | R17T | 2.59
67 | R17C | 1.93
68 | R17K | 1.36
69 | R17D | 4.38

Row | Variant | protein stability index
70 | R17E | 2.26
71 | R17N | 3.66
72 | R17S | 2.7
73 | R17W | 1.66
74 | E12T | 1.42
75 | E12H | 2.21
76 | E12F | 1.23
77 | E12D | 2.56
78 | E12L | 2.17
79 | E12Q | 1.75
80 | E12R | 3.79
81 | E12C | 3.61
82 | E12V | 1.23
83 | E12K | 1.01
84 | E12M | 1.47
85 | E12Y | 2.69
86 | T18G | 3.94
87 | T18L | 3.05
88 | T18H | 1.7
89 | T18M | 2
90 | T18E | 3.94
91 | T18A | 2.96
92 | T18C | 1.63

Row | Variant | protein stability index
93 | T18I | 1.4
94 | T18V | 1.29
95 | T18F | 2.03
96 | T18Y | 2.37
97 | T18D | 3.96
98 | T18S | 2.69
99 | T18N | 1.74
100 | T18Q | 2.47
101 | K8I | 1.37
102 | K8Q | 2.41
103 | K8E | 1.63
104 | K8M | 2.25
105 | K8P | 2.52
106 | K8S | 2.25
107 | K8L | 2.63
108 | K8C | 1.65
109 | W20P | 2.01
110 | W20N | 4.45
111 | W20G | 1.33
112 | W20R | 4.73
113 | W20V | 3.67
114 | W20C | 2.99
115 | W20A | 3.77

Row | Variant | protein stability index
116 | W20H | 2.02
117 | W20K | 5
118 | W20F | 2.87
119 | W20Y | 2.26
120 | W20T | 4.15
121 | W20L | 4.36
122 | W20S | 4.58
123 | W20I | 3.89
124 | W20Q | 3.66
125 | W20M | 3.15
126 | R14C | 2.81
127 | R14V | 3.24
128 | R14E | 3.01
129 | R14F | 2.72
130 | R14H | 2.71
131 | R14W | 1.54
132 | R14G | 4.21
133 | R14P | 4.64
134 | R14M | 3.01
135 | R14K | 2.05
136 | R14Y | 3
137 | R14I | 3.23
138 | R14A | 3.44

Row | Variant | protein stability index
139 | K22P | 3.43
140 | K22T | 2.93
141 | K22I | 4.11
142 | G10H | 1.74
143 | G10F | 1.66
144 | G10M | 1.61
145 | G10V | 1.39
146 | G10I | 1.33
147 | G10K | 2.05
148 | G10Y | 1.29
149 | G10R | 2.37
150 | G10P | 3.1
151 | G10W | 2.17
152 | G10L | 1.22
153 | G10T | 2.48
154 | G10A | 3.09
155 | P16C | 1.24
156 | P16E | 1.8
157 | P16N | 3.05
158 | P16Q | 1.03
159 | P16H | 1.39
160 | P16S | 1.46
161 | P16K | 3.74

Row | Variant | protein stability index
162 | P16G | 3.15
163 | G21V | 2.78
164 | G21H | 4.34
165 | G21M | 3.89
166 | G21L | 3.56
167 | G21A | 3.47
168 | G21Q | 4.45
169 | G21T | 3.57
170 | G21C | 3.16
171 | G21D | 4
172 | G21I | 2.85
173 | G21F | 3.36
174 | G21E | 4.54
175 | G21W | 2.69
176 | G21K | 4.43
177 | G21P | 4.47
178 | G21N | 4.39
179 | H6T | 1.76
180 | H6P | 1.77
181 | H6Y | 2.62
182 | H6E | 1.41
183 | H6K | 1.38
184 | H6A | 1.63

Row | Variant | protein stability index
185 | H6S | 1.85
186 | H6F | 1.81
187 | H6G | 1.64
188 | H6R | 2.85
189 | H6M | 2.12
190 | L9Q | 2.72
191 | L9C | 2.4
192 | L9N | 2.8
193 | L9V | 2.02
194 | L9R | 2.64
195 | L9P | 2.92
196 | L9H | 1.62
197 | R19Y | 1.92
198 | R19F | 2.3
199 | R19D | 5.13
200 | R19W | 2.67
201 | R19N | 2.5
202 | R19H | 2.59
203 | R19L | 3.09
204 | R19M | 2.41
205 | R19K | 1.49
206 | R19E | 3.77

Variants of: B2
Assay: as above
Conditions: c terminus: a fixed tail appended

Row | Variant | protein stability index
207 | R4D | 4.92
208 | R4S | 4.2
209 | R4C | 4.37
210 | R4G | 4.62
211 | R4H | 4.15
212 | R4E | 5.35
213 | R4Q | 4.6
214 | R4M | 4.25
215 | R4I | 3.85
216 | R4Y | 4.1
217 | R4T | 4.94
218 | R4F | 3.15
219 | R4N | 4.64
220 | R4W | 3.67
221 | R4V | 4.39
222 | R4L | 4.05
223 | R4A | 3.49
224 | R4P | 3.68
225 | R4K | 3.86
226 | I7G | 4.84
227 | I7P | 4.79
228 | I7D | 4.84
229 | I7N | 4.35
230 | I7L | 4.11
231 | I7Q | 4.37
232 | I7K | 4.28

Row | Variant | protein stability index
233 | I7E | 4.54
234 | I7C | 3.83
235 | I7A | 4.21
236 | I7H | 3.79
237 | I7R | 3.58
238 | I7F | 2.79
239 | I7M | 4.41
240 | S3L | 3.95
241 | S3F | 3.57
242 | S3R | 4.02
243 | S3E | 4.78
244 | S3Q | 4.09
245 | S3D | 4.67
246 | S3I | 3.21
247 | S3T | 4.26
248 | S3Y | 3.37
249 | S3V | 3.6
250 | S3M | 4
251 | S3H | 3.59
252 | S3K | 4.56
253 | S3C | 4.11
254 | S3A | 4.44
255 | S3G | 3.17
256 | S3N | 4.62
257 | S3P | 3.67
258 | S3W | 2.85

Row | Variant | protein stability index
259 | T5F | 2.35
260 | T5G | 3.53
261 | T5Q | 3.74
262 | T5K | 4.01
263 | T5D | 4.2
264 | T5L | 3.6
265 | T5C | 3.58
266 | T5A | 4.19
267 | T5P | 4
268 | T5W | 2.71
269 | T5Y | 2.19
270 | T5I | 3.5
271 | T5R | 3.77
272 | T5M | 3.3
273 | T5V | 3.86
274 | T5E | 4.85
275 | T5N | 4.28
276 | T5H | 3.21
277 | T5S | 4.01
278 | S6C | 3.95
279 | S6Q | 3.89
280 | S6F | 1.83
281 | S6R | 3.22
282 | S6Y | 1.98
283 | S6K | 4.27
284 | S6M | 3.15

Row | Variant | protein stability index
285 | S6P | 3.79
286 | S6W | 3.48
287 | S6T | 3.73
288 | S6N | 4.53
289 | S6L | 2.66
290 | S6D | 4.39
291 | S6I | 3.61
292 | S6A | 3.98
293 | S6E | 4.86
294 | S6H | 3.48
295 | S6V | 3.69
296 | S6G | 3.58
297 | I2G | 5.75
298 | I2M | 4.84
299 | I2Q | 4.58
300 | I2T | 4.88
301 | I2W | 4.79
302 | I2Y | 4.95
303 | I2E | 5.59
304 | I2R | 5.32
305 | I2H | 3.36
306 | I2P | 5.21
307 | I2N | 5.67
308 | I2F | 5.38
309 | I2S | 5.02
310 | I2D | 5.62

Row | Variant | protein stability index
311 | I2K | 5.46
312 | I2L | 5.06
313 | I2V | 2.78
314 | I2A | 4.66
315 | I2C | 3.34
316 | F1E | 5.46
317 | F1W | 4.88
318 | F1C | 5.29
319 | F1D | 5.56
320 | F1L | 5.6
321 | F1P | 5.89
322 | F1M | 5.24
323 | F1A | 5.37
324 | F1V | 5.41
325 | F1N | 5.29
326 | F1R | 4.92
327 | F1T | 5.32
328 | F1Q | 5.63
329 | F1H | 5.37
330 | F1Y | 4.39
331 | F1I | 5.73
332 | F1G | 5.71
333 | F1S | 5.84
334 | F1K | 5.42
